{"source": "patent US20140348819A1", "about": "“Methods of Treating Cancer” (Dana-Farber Cancer Institute, Inc., priority 2011, published 2014)", "molecules": {"B1": {"name": "Angiopoietin-1 (protein, UniProt Q15389 16-498, looked up)", "Angiopoietin-1": "HIGCSNQRRSPENSGRRYNRIQHGQCAYTFILPEHDGNCRESTTDQYNTNALQRDAPHVEPDFSSQKLQHLEHVMENYTQWLQKLENYIVENMKSEMAQIQQNAVQNHTATMLEIGTSLLSQTAEQTRKLTDVETQVLNQTSRLEIQLLENSLSTYKLEKQLLQQTNEILKIHEKNSLLEHKILEMEGKHKEELDTLKEEKENLQGLVTRQTYIIQELEKQLNRATTNNSVLQKQQLELMDTVHNLVNLCTKEGVLLKGGKREEEKPFRDCADVYQAGFNKSGIYTIYINNMPEPKKVFCNMDVNGGGWTVIQHREDGSLDFQRGWKEYKMGFGNPSGEYWLGNEFIFAITSQRQYMLRIELMDWEGNRAYSQYDRFHIGNEKQNYRLYLKGHTGTAGKQSSLILHGADFSTKDADNDNCMCKCALMLTGGWWFDACGPSNLNGMFYTAGQNHGKLNGIKWHYFKGPSYSLRSTTMMIRPLDF"}}, "test_system": "six V600E BRAF melanoma cell lines", "experiment": "Screening of recombinant RTK ligands for ability to confer resistance to BRAFi (PLX4720) or MEKi (PD184352) (Table 4)", "format": "cell-based, human", "parameters": "ability of recombinant RTK ligand to confer resistance / ability of recombinant RTK ligand to confer resistance (screening value): scale not given here", "description": "HGF is the only one that can substantially confer drug resistance to the cell lines.\nThe complexity of the tumor microenvironment is much greater than an in vitro co-culture system. Therefore, the inventors explored whether the activation of other RTKs could result in a similar resistance as that observed with the activation of MET. To this end, six V600E BRAF melanoma cell lines were tested for their resistance to either BRAFi (PLX4720) or MEKi (PD184352) after the addition of 22 RTK ligands that have the potential of activating almost all known RTKs. […] The activation of a selected subset of these RTKs was confirmed by western blotting and by high throughput tyrosine kinase phosphorylation profiling."}
{"molecule": "B1", "values": [{"measurement": "ability of recombinant RTK ligand to confer resistance", "setting": "A2058, PD184352 - 1 uM, ligand 1.56 ng/ml", "result": 1.02}, {"measurement": "ability of recombinant RTK ligand to confer resistance", "setting": "A2058, PD184352 - 1 uM, ligand 6.25 ng/ml", "result": 1.03}, {"measurement": "ability of recombinant RTK ligand to confer resistance", "setting": "A2058, PD184352 - 1 uM, ligand 25 ng/ml", "result": 0.96}, {"measurement": "ability of recombinant RTK ligand to confer resistance", "setting": "A2058, PD184352 - 1 uM, ligand 100 ng/ml", "result": 0.99}, {"measurement": "ability of recombinant RTK ligand to confer resistance", "setting": "A2058, PD184352 - 1 uM, ligand 400 ng/ml", "result": 0.90}, {"measurement": "ability of recombinant RTK ligand to confer resistance", "setting": "A2058, PLX4720 - 2 uM, ligand 1.56 ng/ml", "result": 1.02}, {"measurement": "ability of recombinant RTK ligand to confer resistance", "setting": "A2058, PLX4720 - 2 uM, ligand 6.25 ng/ml", "result": 1.02}, {"measurement": "ability of recombinant RTK ligand to confer resistance", "setting": "A2058, PLX4720 - 2 uM, ligand 25 ng/ml", "result": 0.91}, {"measurement": "ability of recombinant RTK ligand to confer resistance", "setting": "A2058, PLX4720 - 2 uM, ligand 100 ng/ml", "result": 0.97}, {"measurement": "ability of recombinant RTK ligand to confer resistance", "setting": "A2058, PLX4720 - 2 uM, ligand 400 ng/ml", "result": 0.96}, {"measurement": "ability of recombinant RTK ligand to confer resistance", "setting": "C32, PD184352 - 1 uM, ligand 1.56 ng/ml", "result": 1.08}, {"measurement": "ability of recombinant RTK ligand to confer resistance", "setting": "C32, PD184352 - 1 uM, ligand 6.25 ng/ml", "result": 1.07}, {"measurement": "ability of recombinant RTK ligand to confer resistance", "setting": "C32, PD184352 - 1 uM, ligand 25 ng/ml", "result": 1.02}, {"measurement": "ability of recombinant RTK ligand to confer resistance", "setting": "C32, PD184352 - 1 uM, ligand 100 ng/ml", "result": 1.07}, {"measurement": "ability of recombinant RTK ligand to confer resistance", "setting": "C32, PD184352 - 1 uM, ligand 400 ng/ml", "result": 0.98}, {"measurement": "ability of recombinant RTK ligand to confer resistance", "setting": "C32, PLX4720 - 2 uM, ligand 1.56 ng/ml", "result": 1.20}, {"measurement": "ability of recombinant RTK ligand to confer resistance", "setting": "C32, PLX4720 - 2 uM, ligand 6.25 ng/ml", "result": 1.09}, {"measurement": "ability of recombinant RTK ligand to confer resistance", "setting": "C32, PLX4720 - 2 uM, ligand 25 ng/ml", "result": 1.14}, {"measurement": "ability of recombinant RTK ligand to confer resistance", "setting": "C32, PLX4720 - 2 uM, ligand 100 ng/ml", "result": 1.08}, {"measurement": "ability of recombinant RTK ligand to confer resistance", "setting": "C32, PLX4720 - 2 uM, ligand 400 ng/ml", "result": 0.99}, {"measurement": "ability of recombinant RTK ligand to confer resistance", "setting": "Colo 829, PD184352 - 1 uM, ligand 1.56 ng/ml", "result": 0.94}, {"measurement": "ability of recombinant RTK ligand to confer resistance", "setting": "Colo 829, PD184352 - 1 uM, ligand 6.25 ng/ml", "result": 0.97}, {"measurement": "ability of recombinant RTK ligand to confer resistance", "setting": "Colo 829, PD184352 - 1 uM, ligand 25 ng/ml", "result": 0.97}, {"measurement": "ability of recombinant RTK ligand to confer resistance", "setting": "Colo 829, PD184352 - 1 uM, ligand 100 ng/ml", "result": 0.93}, {"measurement": "ability of recombinant RTK ligand to confer resistance", "setting": "Colo 829, PD184352 - 1 uM, ligand 400 ng/ml", "result": 0.97}, {"measurement": "ability of recombinant RTK ligand to confer resistance", "setting": "Colo 829, PLX4720 - 2 uM, ligand 1.56 ng/ml", "result": 0.93}, {"measurement": "ability of recombinant RTK ligand to confer resistance", "setting": "Colo 829, PLX4720 - 2 uM, ligand 6.25 ng/ml", "result": 0.97}, {"measurement": "ability of recombinant RTK ligand to confer resistance", "setting": "Colo 829, PLX4720 - 2 uM, ligand 25 ng/ml", "result": 0.95}, {"measurement": "ability of recombinant RTK ligand to confer resistance", "setting": "Colo 829, PLX4720 - 2 uM, ligand 100 ng/ml", "result": 0.94}, {"measurement": "ability of recombinant RTK ligand to confer resistance", "setting": "Colo 829, PLX4720 - 2 uM, ligand 400 ng/ml", "result": 1.05}, {"measurement": "ability of recombinant RTK ligand to confer resistance", "setting": "G-361, PD184352 - 1 uM, ligand 1.56 ng/ml", "result": 0.98}, {"measurement": "ability of recombinant RTK ligand to confer resistance", "setting": "G-361, PD184352 - 1 uM, ligand 6.25 ng/ml", "result": 0.96}, {"measurement": "ability of recombinant RTK ligand to confer resistance", "setting": "G-361, PD184352 - 1 uM, ligand 25 ng/ml", "result": 0.92}, {"measurement": "ability of recombinant RTK ligand to confer resistance", "setting": "G-361, PD184352 - 1 uM, ligand 100 ng/ml", "result": 0.95}, {"measurement": "ability of recombinant RTK ligand to confer resistance", "setting": "G-361, PD184352 - 1 uM, ligand 400 ng/ml", "result": 0.75}, {"measurement": "ability of recombinant RTK ligand to confer resistance", "setting": "G-361, PLX4720 - 2 uM, ligand 1.56 ng/ml", "result": 1.02}, {"measurement": "ability of recombinant RTK ligand to confer resistance", "setting": "G-361, PLX4720 - 2 uM, ligand 6.25 ng/ml", "result": 0.96}, {"measurement": "ability of recombinant RTK ligand to confer resistance", "setting": "G-361, PLX4720 - 2 uM, ligand 25 ng/ml", "result": 0.97}, {"measurement": "ability of recombinant RTK ligand to confer resistance", "setting": "G-361, PLX4720 - 2 uM, ligand 100 ng/ml", "result": 0.83}, {"measurement": "ability of recombinant RTK ligand to confer resistance", "setting": "G-361, PLX4720 - 2 uM, ligand 400 ng/ml", "result": 0.84}, {"measurement": "ability of recombinant RTK ligand to confer resistance", "setting": "SK-MEL-5, PD184352 - 1 uM, ligand 1.56 ng/ml", "result": 1.03}, {"measurement": "ability of recombinant RTK ligand to confer resistance", "setting": "SK-MEL-5, PD184352 - 1 uM, ligand 6.25 ng/ml", "result": 0.93}, {"measurement": "ability of recombinant RTK ligand to confer resistance", "setting": "SK-MEL-5, PD184352 - 1 uM, ligand 25 ng/ml", "result": 0.95}, {"measurement": "ability of recombinant RTK ligand to confer resistance", "setting": "SK-MEL-5, PD184352 - 1 uM, ligand 100 ng/ml", "result": 0.92}, {"measurement": "ability of recombinant RTK ligand to confer resistance", "setting": "SK-MEL-5, PD184352 - 1 uM, ligand 400 ng/ml", "result": 0.87}, {"measurement": "ability of recombinant RTK ligand to confer resistance", "setting": "SK-MEL-5, PLX4720 - 2 uM, ligand 1.56 ng/ml", "result": 1.05}, {"measurement": "ability of recombinant RTK ligand to confer resistance", "setting": "SK-MEL-5, PLX4720 - 2 uM, ligand 6.25 ng/ml", "result": 1.02}, {"measurement": "ability of recombinant RTK ligand to confer resistance", "setting": "SK-MEL-5, PLX4720 - 2 uM, ligand 25 ng/ml", "result": 0.98}, {"measurement": "ability of recombinant RTK ligand to confer resistance", "setting": "SK-MEL-5, PLX4720 - 2 uM, ligand 100 ng/ml", "result": 1.03}, {"measurement": "ability of recombinant RTK ligand to confer resistance", "setting": "SK-MEL-5, PLX4720 - 2 uM, ligand 400 ng/ml", "result": 1.04}, {"measurement": "ability of recombinant RTK ligand to confer resistance", "setting": "SK-MEL-28, PD184352 - 1 uM, ligand 1.56 ng/ml", "result": 1.09}, {"measurement": "ability of recombinant RTK ligand to confer resistance", "setting": "SK-MEL-28, PD184352 - 1 uM, ligand 6.25 ng/ml", "result": 1.04}, {"measurement": "ability of recombinant RTK ligand to confer resistance", "setting": "SK-MEL-28, PD184352 - 1 uM, ligand 25 ng/ml", "result": 1.12}, {"measurement": "ability of recombinant RTK ligand to confer resistance", "setting": "SK-MEL-28, PD184352 - 1 uM, ligand 100 ng/ml", "result": 0.98}, {"measurement": "ability of recombinant RTK ligand to confer resistance", "setting": "SK-MEL-28, PD184352 - 1 uM, ligand 400 ng/ml", "result": 0.96}, {"measurement": "ability of recombinant RTK ligand to confer resistance", "setting": "SK-MEL-28, PLX4720 - 2 uM, ligand 1.56 ng/ml", "result": 1.05}, {"measurement": "ability of recombinant RTK ligand to confer resistance", "setting": "SK-MEL-28, PLX4720 - 2 uM, ligand 6.25 ng/ml", "result": 0.96}, {"measurement": "ability of recombinant RTK ligand to confer resistance", "setting": "SK-MEL-28, PLX4720 - 2 uM, ligand 25 ng/ml", "result": 1.02}, {"measurement": "ability of recombinant RTK ligand to confer resistance", "setting": "SK-MEL-28, PLX4720 - 2 uM, ligand 100 ng/ml", "result": 0.96}, {"measurement": "ability of recombinant RTK ligand to confer resistance", "setting": "SK-MEL-28, PLX4720 - 2 uM, ligand 400 ng/ml", "result": 0.99}]}
